{"source": "paper PMC3399781", "key": {"[1]": {"target": "1GS mGRFT (GRFT with GS inserted between Ser16 and Gly17) (Griffithsia sp.) (UniProt P84801)", "assay": "AUC"}, "[2]": {"target": "HIV-1 glycoprotein gp120 (HIV-1) (UniProt P04578)", "assay": "ITC"}}, "data": [{"substance": "1GS mGRFT (GRFT with GS inserted between Ser16 and Gly17) (from UniProt P84801 1-121) (natural protein)", "values": [{"measurement": "Kd", "setting": "[1]", "value": 120, "unit": "µM"}]}, {"substance": "1GS-S mGRFT (L2S variant of 1GS) (from UniProt P84801 1-121) (natural protein)", "values": [{"measurement": "Kd", "setting": "[2]", "value": 0.112, "unit": "µM"}, {"measurement": "dH", "setting": "[2]", "value": -35.5, "unit": "kcal/mol"}]}]}
